US20250076311A1 (Chugai, published 2025)
Blank lines part the entries; values can stand above or below the binder they belong to.

Assays:
[1] = target: T1, soluble mouse FcγRII, His-tagged (mouse, UniProt P08101 30-210, limits assumed); experiment: SPR, mouse FcγRII captured via His-tag, antigen-antibody complex injected, pH 7.4, 25 C
T1 construct: Captured on the chip through an anti-His antibody
T1 sequence (looked up): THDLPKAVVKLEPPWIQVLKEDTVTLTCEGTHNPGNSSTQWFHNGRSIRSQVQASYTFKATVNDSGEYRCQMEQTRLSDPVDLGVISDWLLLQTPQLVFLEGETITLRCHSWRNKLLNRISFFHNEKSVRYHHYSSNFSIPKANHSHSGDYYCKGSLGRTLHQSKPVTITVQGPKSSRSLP
Protocol: Regarding the produced Fc region variant-containing antibodies, binding assays between soluble mouse FcγRII and antigen-antibody complexes were performed using BIACORE® T200 (GE Healthcare). Soluble mouse FcγRII was produced in the form of a His-tagged molecule by a method known to those skilled in the art. An appropriate amount of an anti-His antibody was fixed onto Sensor chip CM5 (GE Healthcare) by the amine coupling method using a His capture kit (GE Healthcare) to capture mouse FcγRII. Next, an antibody-antigen complex and a running buffer (as a reference solution) were injected, and interaction was allowed to take place with the mouse FcγRII captured onto the sensor chip. 20 mM N-(2-Acetamido)-2-aminoethanesulfonic acid, 150 mM NaCl, 1.2 mM CaCl₂), and 0.05% (w/v) TWEEN® 20 at pH7.4 was used as the running buffer, and the respective buffer was also used to dilute the soluble mouse FcγRII. To regenerate the sensor chip, 10 mM glycine-HCl at pH1.5 was used. All measurements were carried out at 25° C. […] To calculate the parameters, the BIACORE® T100 Evaluation Software (GE Healthcare) was used.

[2] = target: T2, human FcγRIIb constitutively expressed on MDCK cells (human, UniProt P31994 43-310); experiment: cell-based or functional assay
T2 sequence (looked up): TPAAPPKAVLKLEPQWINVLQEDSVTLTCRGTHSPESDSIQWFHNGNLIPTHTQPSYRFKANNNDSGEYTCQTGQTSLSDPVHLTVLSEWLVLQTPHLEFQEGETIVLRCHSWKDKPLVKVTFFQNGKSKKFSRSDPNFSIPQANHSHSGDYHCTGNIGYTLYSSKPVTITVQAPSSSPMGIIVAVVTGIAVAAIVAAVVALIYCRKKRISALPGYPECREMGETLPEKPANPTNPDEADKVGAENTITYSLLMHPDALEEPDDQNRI

- biacore IC binding (relative, SG1 = 1.00) [1]: 1.09 relative to SG1
- celluar uptake (labelled human latent myostatin taken up as antigen-antibody complex) [2]: 3.12 relative to SG1 = 1.00
B2: M103205H795-P1530m/M103202L889-SK1 (antibody, human IgG1, kappa, name in EU numbering)
heavy: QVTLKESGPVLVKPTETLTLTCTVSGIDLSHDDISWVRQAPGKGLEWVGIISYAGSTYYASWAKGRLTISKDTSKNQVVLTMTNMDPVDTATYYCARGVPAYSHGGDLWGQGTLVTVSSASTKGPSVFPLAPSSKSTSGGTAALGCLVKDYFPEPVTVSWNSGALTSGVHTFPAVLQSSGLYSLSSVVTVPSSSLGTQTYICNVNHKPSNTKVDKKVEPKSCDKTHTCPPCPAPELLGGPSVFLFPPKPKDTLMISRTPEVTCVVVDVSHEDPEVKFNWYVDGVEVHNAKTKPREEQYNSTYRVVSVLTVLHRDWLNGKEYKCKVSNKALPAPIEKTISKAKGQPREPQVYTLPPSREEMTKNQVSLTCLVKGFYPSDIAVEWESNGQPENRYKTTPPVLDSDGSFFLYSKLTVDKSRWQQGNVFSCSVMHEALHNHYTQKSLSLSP
light: DIVMTQSPATLSLSPGERATLSCTSSQSVYHANWLSWFQQKPGQPPKLLIYWASTLAYGVPSRFSGSGSGTDFTLTISSLQPEDAATYYCAGGYGGGRYAFGQGTKVEIKRTVAAPSVFIFPPSDEQLKSGTASVVCLLNNFYPREAKVQWKVDNALQSGNSQESVTEQDSKDSTYSLSSTLTLSKADYEKHKVYACEVTHQGLSSPVTKSFNRGEC
notes: copies: 2 + 2

- biacore IC binding (relative, SG1 = 1.00) [1]: 1.31 relative to SG1
- celluar uptake (labelled human latent myostatin taken up as antigen-antibody complex) [2]: 3.55 relative to SG1 = 1.00
B3: M103205H795-P1525m/M103202L889-SK1 (antibody, human IgG1, kappa, name in EU numbering)
heavy: not shown
light: B2 light

- biacore IC binding (relative, SG1 = 1.00) [1]: 1.38 relative to SG1
- celluar uptake (labelled human latent myostatin taken up as antigen-antibody complex) [2]: 1.56 relative to SG1 = 1.00
B7: M103205H795-P1498m/M103202L889-SK1 (antibody, human IgG1, kappa, name in EU numbering)
heavy: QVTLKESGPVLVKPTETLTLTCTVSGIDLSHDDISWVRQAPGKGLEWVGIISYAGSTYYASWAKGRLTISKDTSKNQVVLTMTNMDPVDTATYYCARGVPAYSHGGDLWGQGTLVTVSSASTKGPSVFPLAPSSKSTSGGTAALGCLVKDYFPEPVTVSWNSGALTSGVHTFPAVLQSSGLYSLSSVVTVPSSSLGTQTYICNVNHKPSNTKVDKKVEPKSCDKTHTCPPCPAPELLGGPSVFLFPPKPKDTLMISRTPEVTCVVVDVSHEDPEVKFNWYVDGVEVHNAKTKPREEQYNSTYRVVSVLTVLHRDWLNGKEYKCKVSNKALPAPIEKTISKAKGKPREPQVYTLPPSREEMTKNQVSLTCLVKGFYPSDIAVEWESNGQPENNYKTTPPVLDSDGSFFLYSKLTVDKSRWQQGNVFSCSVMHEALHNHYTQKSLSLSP
light: B2 light

- biacore IC binding (relative, SG1 = 1.00) [1]: 1.04 relative to SG1
- celluar uptake (labelled human latent myostatin taken up as antigen-antibody complex) [2]: 1.2 relative to SG1 = 1.00
B8: M103205H795-P1526m/M103202L889-SK1 (antibody, human IgG1, kappa, name in EU numbering)
heavy: not shown
light: B2 light
notes: copies: 2 + 2

- biacore IC binding (relative, SG1 = 1.00) [1]: 0.98 relative to SG1
- celluar uptake (labelled human latent myostatin taken up as antigen-antibody complex) [2]: 0.92 relative to SG1 = 1.00
B9: M103205H795-P1527m/M103202L889-SK1 (antibody, human IgG1, kappa, name in EU numbering)
heavy: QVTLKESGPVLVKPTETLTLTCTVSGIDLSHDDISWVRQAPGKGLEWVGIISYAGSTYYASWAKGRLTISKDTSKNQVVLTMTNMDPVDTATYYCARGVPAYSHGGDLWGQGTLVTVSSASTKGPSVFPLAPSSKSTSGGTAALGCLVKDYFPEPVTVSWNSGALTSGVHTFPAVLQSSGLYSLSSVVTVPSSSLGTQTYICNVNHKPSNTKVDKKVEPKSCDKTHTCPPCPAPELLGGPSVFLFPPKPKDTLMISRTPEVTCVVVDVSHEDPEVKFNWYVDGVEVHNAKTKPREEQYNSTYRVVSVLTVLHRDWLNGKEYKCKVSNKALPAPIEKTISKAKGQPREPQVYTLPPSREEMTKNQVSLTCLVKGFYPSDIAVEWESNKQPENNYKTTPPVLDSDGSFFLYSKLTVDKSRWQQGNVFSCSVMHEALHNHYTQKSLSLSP
light: B2 light
notes: copies: 2 + 2

- biacore IC binding (relative, SG1 = 1.00) [1]: 1.2 relative to SG1
- celluar uptake (labelled human latent myostatin taken up as antigen-antibody complex) [2]: 1.52 relative to SG1 = 1.00
B12: M103205H795-P1486m/M103202L889-SK1 (antibody, human IgG1, kappa, name in EU numbering)
heavy: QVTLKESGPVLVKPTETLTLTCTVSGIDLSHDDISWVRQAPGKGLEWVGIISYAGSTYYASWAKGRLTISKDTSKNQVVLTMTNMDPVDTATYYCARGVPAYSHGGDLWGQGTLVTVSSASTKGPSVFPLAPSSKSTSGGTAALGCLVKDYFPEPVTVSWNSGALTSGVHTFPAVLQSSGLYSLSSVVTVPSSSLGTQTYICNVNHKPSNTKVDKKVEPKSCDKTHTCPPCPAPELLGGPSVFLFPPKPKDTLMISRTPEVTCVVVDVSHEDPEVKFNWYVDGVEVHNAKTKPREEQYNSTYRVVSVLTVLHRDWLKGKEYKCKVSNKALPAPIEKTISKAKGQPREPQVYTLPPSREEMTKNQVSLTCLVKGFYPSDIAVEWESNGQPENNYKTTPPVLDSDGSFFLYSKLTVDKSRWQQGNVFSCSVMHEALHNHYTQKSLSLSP
light: B2 light
notes: copies: 2 + 2

- biacore IC binding (relative, SG1 = 1.00) [1]: 1.1 relative to SG1
- celluar uptake (labelled human latent myostatin taken up as antigen-antibody complex) [2]: 0.99 relative to SG1 = 1.00
B14: M103205H795-P1493m/M103202L889-SK1 (antibody, human IgG1, kappa, name in EU numbering)
heavy: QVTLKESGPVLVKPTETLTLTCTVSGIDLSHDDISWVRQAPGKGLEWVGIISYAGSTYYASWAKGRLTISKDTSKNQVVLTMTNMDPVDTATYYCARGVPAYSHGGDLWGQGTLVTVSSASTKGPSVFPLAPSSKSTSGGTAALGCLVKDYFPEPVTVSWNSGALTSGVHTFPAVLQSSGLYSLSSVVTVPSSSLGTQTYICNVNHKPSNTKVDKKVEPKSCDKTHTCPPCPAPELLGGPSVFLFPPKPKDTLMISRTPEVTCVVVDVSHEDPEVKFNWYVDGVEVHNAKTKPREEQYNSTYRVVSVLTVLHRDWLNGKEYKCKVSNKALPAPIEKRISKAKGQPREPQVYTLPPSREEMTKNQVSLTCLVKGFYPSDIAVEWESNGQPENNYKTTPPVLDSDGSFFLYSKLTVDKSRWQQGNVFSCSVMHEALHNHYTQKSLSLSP
light: B2 light
notes: copies: 2 + 2

- biacore IC binding (relative, SG1 = 1.00) [1]: 1.08 relative to SG1
- celluar uptake (labelled human latent myostatin taken up as antigen-antibody complex) [2]: 2.86 relative to SG1 = 1.00
B16: M103205H795-P1529m/M103202L889-SK1 (antibody, human IgG1, kappa, name in EU numbering)
heavy: not shown
light: B2 light
notes: copies: 2 + 2

- biacore IC binding (relative, SG1 = 1.00) [1]: 1.32 relative to SG1
- celluar uptake (labelled human latent myostatin taken up as antigen-antibody complex) [2]: 1.82 relative to SG1 = 1.00
B18: M103205H795-P1500m/M103202L889-SK1 (antibody, human IgG1, kappa, name in EU numbering)
heavy: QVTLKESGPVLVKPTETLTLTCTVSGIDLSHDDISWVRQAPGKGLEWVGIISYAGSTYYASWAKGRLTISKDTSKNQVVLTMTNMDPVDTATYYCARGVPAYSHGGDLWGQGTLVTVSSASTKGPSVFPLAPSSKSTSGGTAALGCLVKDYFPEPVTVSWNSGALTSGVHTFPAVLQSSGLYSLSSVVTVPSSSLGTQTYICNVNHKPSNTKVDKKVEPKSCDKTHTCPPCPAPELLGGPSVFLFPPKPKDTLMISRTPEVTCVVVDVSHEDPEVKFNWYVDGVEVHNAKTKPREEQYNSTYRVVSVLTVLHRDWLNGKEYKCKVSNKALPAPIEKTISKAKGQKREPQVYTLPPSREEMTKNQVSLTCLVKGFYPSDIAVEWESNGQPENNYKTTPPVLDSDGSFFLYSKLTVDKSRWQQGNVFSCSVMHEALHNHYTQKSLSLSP
light: B2 light

Further lines, the binder ahead of its results:

B1: M103205H795-P1487m/M103202L889-SK1 (antibody, human IgG1, kappa, name in EU numbering)
heavy: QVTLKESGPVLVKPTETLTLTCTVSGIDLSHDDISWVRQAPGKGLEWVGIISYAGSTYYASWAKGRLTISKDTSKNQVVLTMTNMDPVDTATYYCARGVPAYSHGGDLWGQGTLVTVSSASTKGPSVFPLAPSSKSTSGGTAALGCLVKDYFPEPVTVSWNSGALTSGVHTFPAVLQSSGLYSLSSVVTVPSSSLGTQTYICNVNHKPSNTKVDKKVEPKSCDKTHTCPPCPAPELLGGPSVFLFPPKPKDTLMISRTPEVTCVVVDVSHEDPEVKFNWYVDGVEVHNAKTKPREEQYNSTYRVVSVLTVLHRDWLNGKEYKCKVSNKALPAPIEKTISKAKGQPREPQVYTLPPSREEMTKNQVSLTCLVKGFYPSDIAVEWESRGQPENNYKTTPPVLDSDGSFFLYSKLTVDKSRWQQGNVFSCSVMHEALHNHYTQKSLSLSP
light: B2 light
notes: copies: 2 + 2
- biacore IC binding (relative, SG1 = 1.00) [1]: 1.46 relative to SG1
- celluar uptake (labelled human latent myostatin taken up as antigen-antibody complex) [2]: 1.23 relative to SG1 = 1.00

B4: M103205H795-P1538m/M103202L889-SK1 (antibody, human IgG1, kappa, name in EU numbering)
heavy: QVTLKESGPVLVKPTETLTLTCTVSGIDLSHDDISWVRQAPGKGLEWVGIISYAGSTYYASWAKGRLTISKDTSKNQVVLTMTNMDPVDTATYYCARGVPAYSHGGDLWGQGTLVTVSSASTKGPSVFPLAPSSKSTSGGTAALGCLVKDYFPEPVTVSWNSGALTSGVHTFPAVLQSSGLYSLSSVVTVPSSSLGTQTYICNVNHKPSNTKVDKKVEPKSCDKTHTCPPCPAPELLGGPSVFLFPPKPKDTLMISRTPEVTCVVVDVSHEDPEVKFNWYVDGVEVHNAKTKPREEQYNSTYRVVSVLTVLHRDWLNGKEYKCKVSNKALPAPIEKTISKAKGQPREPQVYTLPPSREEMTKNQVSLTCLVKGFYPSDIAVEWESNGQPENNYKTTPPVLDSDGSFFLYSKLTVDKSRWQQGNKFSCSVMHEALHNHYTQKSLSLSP
light: B2 light
notes: copies: 2 + 2
- biacore IC binding (relative, SG1 = 1.00) [1]: 1.11 relative to SG1
- celluar uptake (labelled human latent myostatin taken up as antigen-antibody complex) [2]: 1.84 relative to SG1 = 1.00

B5: M103205H795-P1494m/M103202L889-SK1 (antibody, human IgG1, kappa, name in EU numbering)
heavy: not shown
light: B2 light
notes: copies: 2 + 2
- biacore IC binding (relative, SG1 = 1.00) [1]: 1.14 relative to SG1
- celluar uptake (labelled human latent myostatin taken up as antigen-antibody complex) [2]: 1.12 relative to SG1 = 1.00

B6: M103205H795-P1533m/M103202L889-SK1 (antibody, human IgG1, kappa, name in EU numbering)
heavy: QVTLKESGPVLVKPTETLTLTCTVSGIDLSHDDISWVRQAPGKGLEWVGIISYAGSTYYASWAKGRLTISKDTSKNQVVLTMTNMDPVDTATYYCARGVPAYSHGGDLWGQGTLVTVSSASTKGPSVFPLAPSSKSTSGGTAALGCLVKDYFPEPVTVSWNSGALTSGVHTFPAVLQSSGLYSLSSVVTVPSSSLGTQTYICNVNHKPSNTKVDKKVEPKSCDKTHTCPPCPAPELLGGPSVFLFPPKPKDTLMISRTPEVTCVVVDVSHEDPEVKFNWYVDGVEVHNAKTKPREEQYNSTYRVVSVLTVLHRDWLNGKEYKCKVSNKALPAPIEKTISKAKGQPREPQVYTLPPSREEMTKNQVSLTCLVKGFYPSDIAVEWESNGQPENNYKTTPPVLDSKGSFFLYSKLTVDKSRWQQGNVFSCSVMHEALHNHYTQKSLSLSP
light: B2 light
notes: copies: 2 + 2
- biacore IC binding (relative, SG1 = 1.00) [1]: 1.18 relative to SG1
- celluar uptake (labelled human latent myostatin taken up as antigen-antibody complex) [2]: 3.52 relative to SG1 = 1.00

B10: M103205H795-P1537m/M103202L889-SK1 (antibody, human IgG1, kappa, name in EU numbering)
heavy: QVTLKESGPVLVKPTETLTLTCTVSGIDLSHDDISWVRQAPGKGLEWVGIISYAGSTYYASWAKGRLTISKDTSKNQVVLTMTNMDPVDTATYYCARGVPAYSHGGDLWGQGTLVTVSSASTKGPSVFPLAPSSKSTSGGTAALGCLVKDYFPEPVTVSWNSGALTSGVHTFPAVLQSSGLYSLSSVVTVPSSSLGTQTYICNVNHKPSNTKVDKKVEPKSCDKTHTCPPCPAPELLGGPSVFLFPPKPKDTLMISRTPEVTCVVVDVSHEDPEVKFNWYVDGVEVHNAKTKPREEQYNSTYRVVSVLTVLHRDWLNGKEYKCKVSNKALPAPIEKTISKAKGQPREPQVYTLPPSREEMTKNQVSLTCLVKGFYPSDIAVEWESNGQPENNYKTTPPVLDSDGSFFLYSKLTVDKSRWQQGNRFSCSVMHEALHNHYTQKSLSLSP
light: B2 light
notes: copies: 2 + 2
- biacore IC binding (relative, SG1 = 1.00) [1]: 1.32 relative to SG1
- celluar uptake (labelled human latent myostatin taken up as antigen-antibody complex) [2]: 2.77 relative to SG1 = 1.00

B11: M103205H795-P1485m/M103202L889-SK1 (antibody, human IgG1, kappa, name in EU numbering)
heavy: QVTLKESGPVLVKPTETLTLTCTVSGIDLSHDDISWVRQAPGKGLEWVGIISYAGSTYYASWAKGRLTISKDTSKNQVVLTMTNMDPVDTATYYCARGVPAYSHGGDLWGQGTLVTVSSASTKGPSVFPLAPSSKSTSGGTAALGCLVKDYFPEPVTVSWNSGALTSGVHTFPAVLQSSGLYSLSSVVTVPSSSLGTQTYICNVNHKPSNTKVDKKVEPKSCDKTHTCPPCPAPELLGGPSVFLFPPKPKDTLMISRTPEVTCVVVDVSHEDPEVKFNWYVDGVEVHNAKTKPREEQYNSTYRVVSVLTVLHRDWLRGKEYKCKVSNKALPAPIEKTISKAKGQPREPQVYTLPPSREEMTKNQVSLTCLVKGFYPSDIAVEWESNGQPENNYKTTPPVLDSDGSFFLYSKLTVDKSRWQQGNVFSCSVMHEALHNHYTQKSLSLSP
light: B2 light
notes: copies: 2 + 2
- biacore IC binding (relative, SG1 = 1.00) [1]: 1.29 relative to SG1
- celluar uptake (labelled human latent myostatin taken up as antigen-antibody complex) [2]: 1.88 relative to SG1 = 1.00

B13: M103205H795-P1531m/M103202L889-SK1 (antibody, human IgG1, kappa, name in EU numbering)
heavy: not shown
light: B2 light
notes: copies: 2 + 2
- biacore IC binding (relative, SG1 = 1.00) [1]: 1.01 relative to SG1
- celluar uptake (labelled human latent myostatin taken up as antigen-antibody complex) [2]: 2.35 relative to SG1 = 1.00

B15: M103205H795-P1489m/M103202L889-SK1 (antibody, human IgG1, kappa, name in EU numbering)
heavy: not shown
light: B2 light
notes: copies: 2 + 2
- biacore IC binding (relative, SG1 = 1.00) [1]: 1.24 relative to SG1
- celluar uptake (labelled human latent myostatin taken up as antigen-antibody complex) [2]: 1.68 relative to SG1 = 1.00

B17: M103205H795-P1497m/M103202L889-SK1 (antibody, human IgG1, kappa, name in EU numbering)
heavy: not shown
light: B2 light
- biacore IC binding (relative, SG1 = 1.00) [1]: 1.49 relative to SG1
- celluar uptake (labelled human latent myostatin taken up as antigen-antibody complex) [2]: 1.38 relative to SG1 = 1.00
